This test concerns the target full-length dengue virus serotype 1 (DENV1) NS1 (dengue virus serotype 1 (DENV1)). As to the kind of experiment: crystal structure.

As usually defined, the stoichiometry N is the number of molecules, sites or subunits per partner or assembly.

“full-length dengue virus serotype 1 (DENV1) NS1 (natural protein)”: the stoichiometry N was 2.
